These results are taken from the supplement of paper PMC9170038.

This data set has as its system MS2 coat protein. Kind of data set: apparent KD of MS2 coat protein; designed switch direction (-1 OFF switch, 1 ON switch): -1; higher = weaker reporter binding. The gist of the method:
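Designed RNA switches with common flanks were transcribed on Illumina chips by stalled E. coli RNA polymerase and titrated with SNAP-549-labelled MS2 coat protein, from 0.7 or 1.5 nM doubling to 3 µM, in Tris-HCl pH 7.5 buffer with KCl, MgCl2, BSA, DTT, tRNA and Tween-20. Steps lasted 0.8–1.5 h (lowest) to 10–20 min (highest). Titrations ran without input, with 200 uM small-molecule ligand, or with an oligonucleotide input. Normalised cluster fluorescence was curve-fitted, and apparent KD is the per-design median over clusters.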

Where [1] appears, read: Eterna round: R95, input ligand: microRNA oligo, concentration not stated.
[2] abbreviates: Eterna round: R95, input ligand: FMN 200 uM.
[3] abbreviates: Eterna round: R95, input ligand: none.
Setting [4] is: input ligand: microRNA oligo, concentration not stated.

As for “CUUAGACAUGAGGAUCACCCAUGUCAGGAUAUCGUCUACCUGUGGAAACACAGGUAGACGAGAAGGGAUGUGUU [SS1 Omei 3] (puzzle: Exclusion 1)”, the “apparent KD of MS2 coat protein” value under setting [1] is 37.8 nM.
On the same count and under the same terms, the same measure for “CUUAGACAUGAGGAUCACCCAUGUGAGGAUAUGAUGCAGCAGUGGUCUACGCUGUGCAUCAGAAGGCACAUGUG (puzzle: Exclusion 1)”: 62.4 nM.
For “CUUAGCCUAAAAUCACGCAAGCUUUUUGCUUGUCUAAAGACAUGAGGAUCACCCAUGUCCGGGCUGAACUUAUGGAA [Atqusoen] (puzzle: Sensor v3, turn-off variant 2)”, the “apparent KD of MS2 coat protein” value was 17.7 nM under setting [2], 18.1 nM under setting [1] and 16 nM under setting [3].
With “CUUAUGUGAGGAUAUCAGUAGUAAUACAAUAGUAUUACUACUGAGAAGGCACAUGAGGAUCACCCAUGUUCUUC [Exclusion 4 - Mod Omei Ex4 344 mod v.2] (puzzle: Exclusion 4)”, under setting [1], the “apparent KD of MS2 coat protein” value was 103 nM.
On to “CUUCACCCACCAAAGCUCACCCACAUACCUGCUCUGGUGACAUGAGGAUCACCCAUGUUUUUUGCCCGUCUUAUCUU [Leso] (puzzle: Sensor v3, turn-off variant 2)”, for which the “apparent KD of MS2 coat protein” value reads like this: under setting [2], 40.7 nM; under setting [1], 163 nM; under setting [3], 41.4 nM.
“CUUCGGCGAGGAUAUUACGAGAACGACAUGAGGAUCACCCAUGUGAUCGAGGUUGCCUCGUAAGAAGGCGCAUAUA [Reederedle] (Eterna round: R97, puzzle: Exclusion 5)”: the “apparent KD of MS2 coat protein” value by setting is: (input ligand: FMN 200 uM) 1050 nM; (input ligand: none) 244 nM.
For “CUUCUCAGAGGAUAUCACGGUAAUAACAUGAGGAUCACCCAUGUGGAAUUCGUGUCCCUGUGAGAAGGCUGAGAAG [Bezavere] (puzzle: Exclusion 5)”, the “apparent KD of MS2 coat protein” value runs as follows: under setting [2], 33.2 nM; under setting [1], 12.2 nM; under setting [3], 16 nM.
In the case of “CUUCUGUCAGGAUAUGCGAAUCACCGCUGGGUCAGCGGCGAGCAGAAGGGACAUGAGGAUCACCCAUGUAAAAU [Quriveer] (Eterna round: R97, puzzle: Exclusion 4)”, the “apparent KD of MS2 coat protein” value came to 211 nM (input ligand: FMN 200 uM) and 51.3 nM (input ligand: none).
“CUUGAGCAGGUAGGAUAUACGAAGUGUCGGCGAGUAGAAGGACCUGCGAUCCACUUGAGGAUCACCCAAGUUCGCAGGAGAACA [Mutated MS2 EX1.1] (Eterna round: R96, puzzle: Exclusion NG 1)”: the “apparent KD of MS2 coat protein” value by setting is: (input ligand: FMN 200 uM) 241 nM; under setting [4], 32.4 nM; (input ligand: none) 61.3 nM.
Taken in the same sequence, the figures for “CUUGCGGACAAAGGAUAUUGCGGUGACCGGCUCGGCGUACCGAGCCUACAUGAGGAUCACCCAUGUAAGAAGGUUGACGCUGGU [JL ViennaUCT Qudice mod 4] (Eterna round: R96, puzzle: Exclusion NG 2)” were 106 nM, 20 nM and 27.6 nM.
“CUUGUACAUGAGGAUCACCCAUGUUAGGAUAUCUCGCCGUCGGCUUGCCGACGGUAUUAGAGAAGGGACUAGGG [JL Tixe mod 5] (puzzle: Exclusion 1)”: the “apparent KD of MS2 coat protein” value under setting [1] stood at 38.8 nM.
Consider “CUUGUGUAAGGAUAUAUGAGUCACGGAAAUAAACCGUGAAGAUAGAAGGUACAUGAGGAUCACCCAUGUAAAAC [Mod of Anonveat 5 - Jieux - Exclusion 4] (Eterna round: R97, puzzle: Exclusion 4)”, for which the “apparent KD of MS2 coat protein” value (input ligand: FMN 200 uM) worked out at 224 nM and the “apparent KD of MS2 coat protein” value (input ligand: none) is 35.2 nM.
Taken in the same sequence, the figures for “CUUGUGUGAGGAUAUGAAUUACCUGGUCAAACAGGCUCCUGUCAGAAGGCACAUGAGGAUCACCCAUGUGGGCA [Dibilela] (Eterna round: R97, puzzle: Exclusion 4)” were 121 nM and 310 nM.
Regarding “CUUGUGUUAGGAUAUGUUAAGCCACCAACCAGUGGAUCAGGACAGAAGGAACAUGAGGAUCACCCAUGUAAAAG [Inedar] (Eterna round: R97, puzzle: Exclusion 4)”, the “apparent KD of MS2 coat protein” value by setting is: (input ligand: FMN 200 uM) 25.3 nM; (input ligand: none) 67.4 nM.
